# Experimental data: patent US9333268B2, “Methods of treatment with arginine deiminase” (Polaris Group, priority 2012, dated 2016)
# B1: ADI-PEG 20: arginine deiminase (ADI) formulated with PEG of 20,000 m.w. (protein)
# chain: MSVFDSKFNGIHVYSEIGELETVLVHEPGREIDYITPARLDELLFSAILESHDARKEHQSFVKIMKDRGINVVELTDLVAETYDLASKAAKEEFIETFLEETVPVLTEANKEAVRAFLLSKPTHEMVEFMMSGITKYELGVESENELIVDPMPNLYFTRDPFASVGNGVTIHFMRYIVRRRETLFARFVFRNHPKLVKTPWYYDPAMKMSIEGGDVFIYNNETLVVGVSERTDLDTITLLAKNIKANKEVEFKRIVAINVPKWTNLMHLDTWLTMLDKNKFLYSPIANDVFKFWDYDLVNGGAEPQPQLNGLPLDKLLASIINKEPVLIPIGGAGATEMEIARETNFDGTNYLAIKPGLVIGYDRNEKTNAALKAAGITVLPFHGNQLSLGMGNARCMSMPLSRKDVKW
# Key:
# [1] = Serum ADI-PEG 20 levels by ELISA; format: in vivo, mice
# Procedure: In order to determine the effect of ADI-PEG 20 treatment on systemic arginine levels, mice sera were analyzed using high-performance liquid chromatography (HPLC). L-arginine and L-citrulline were resolved with a Pickering Laboratories PCX 5200 post-column derivatization instrument (Pickering Laboratories, Mountain View, Calif., USA) at 39° C. reaction temperature and a fluorescence detector. […] Total ADI-PEG 20 levels were measured by ELISA, as described previously (Holtsberg et al, J Control Release 80(1-3):259-271, 2002).
# ASS-negative AML lines = assay: Viability of AML cell lines treated with ADI-PEG 20; format: cell-based
# Procedure: (§1) In this example, it was determined whether ASS negativity would predict for the efficacy of pegylated arginine deiminase (ADI-PEG 20) using AML cell lines and primary AML samples. A lack of ASS protein was identified in three of seven leukemic cell lines (K562, Kasumi and KG-1) and in all nine samples from patients with cytogenetically normal and abnormal karotype AML. Methylation of the ASS promoter correlated with reduced levels of ASS mRNA and absence of ASS expression.
# (§2) Primary ASS-negative AML samples with good engraftment in NOD/SCID mice have been identified and studies of the efficacy of ADI-PEG 20 using this primary AML xenograft model have begun. Based on the results described herein and the potential efficacy with low toxicity of arginine deprivation in humans, a phase II trial of ADI-PEG 20 has been planned in patients with relapsed AML.
# [2] = tested on: ASS-positive control lines, Fujioka and U937; assay: as above; format: cell-based
# Procedure: as §1, §2
# SW1222 = assay: MTS viability of siRNA-transfected ASS-positive SW1222 cells treated with ADI-PEG 20; format: cell-based
# Procedure: (§3) To assess the anti-proliferative effect of ADI-PEG 20 on adherent cells, cells were plated a density of 2×10^3 cells per well in a tissue culture 96-microwell plate and allowed to adhere overnight. The following day, cells were treated with ADI-PEG 20 (DesigneRx Pharmaceuticals, Vacaville, Calif., USA, a subsidiary of Polaris Group, San Diego, Calif., USA) ranging from 0 to 10 mIU ml^−1. After incubation for 120 h, cell viability was determined using (3-(4,5-dimethylthiazol-2-yl)-5-(3-carboxymethoxyphenyl)-2-(4-sulfophenyl)-2H-tetrazolium) (MTS, CellTiter 96 AQueous One Solution, Promega, Madison, Wis., USA), according to the manufacturers protocol. Twenty microliters of MTS reagent was added to the appropriate control and assay wells before the plate was incubated for 2 h at 37° C. and absorbance read at 490 nm. Absolute absorbance for each treatment was determined by subtracting the background MTS absorbance, and the mean and standard deviation was calculated. The effect of the autophagy inhibitor chloroquine (Sigma) on cell proliferation was assessed using the MTS assay.
# To further assess the importance of cellular ASS expression in response to treatment with ADI-PEG 20, expression of ASS was silenced through the use of ASS-specific siRNA. Small interfering RNA constructs were obtained from Integrated DNA technologies (IDT, Coralville, Iowa, USA) against the ASS-coding region. […]
# [3] = in the mice; cited from earlier work
# SK-LC-13 xenografts = assay: Large SK-LC-13 SCLC xenografts in BALB/c-nude mice; format: in vivo
# Procedure: The activity of ADI-PEG 20 was also assessed in mice bearing ASS-positive NCI-H69 SCLC xenografts. Small cell lung cancer xenografts were established in female BALB/c-nude mice, 3-4 weeks of age weighing ˜20 g (Charles River Labs, Wilmington, Mass., USA). To establish the tumors, 10×10^6 cells in media were mixed 1:1 with Matrigel High Concentration (BD Biosciences) and injected subcutaneously in the abdominal area of the mice. Tumor growth was regularly measured and tumor volume calculated using the formula (TV=(length×width^2)/2). All animal studies were approved by the MSKCC Institutional Animal Care and Use Committee. Mice were euthanized when tumors reached an approximate volume of 1,000 mm^3.
# The anti-tumor efficacy of ADI-PEG 20 was simultaneously assessed in mice bearing either moderate or large SK-LC-13 SCLC xenografts. In the first study, treatment was initiated once tumors had reached an average size of 125 mm^3. In the large xenograft study, treatment was initiated once tumors had reached an average size of 500 mm^3. Arginine deiminase-PEG20 was administered at doses of 1, 2 and 5 IU per animal once every 5 days for 20 days (five doses). To assess the effect of sustained dosing, further groups (n=5) at all dose levels received continued administration of ADI-PEG 20 every 5 days until tumors progressed to the 1,000 mm^3 size limit. Additionally, the efficacy of ADI-PEG 20 was assessed in mice bearing ASS-positive NCI-H69 xenografts. Here, mice received five doses of 2 IU ADI-PEG 20 for 20 days once tumor had reached an average size of 150 mm^3. Arginine deiminase-PEG20 was administered by intraperitoneal injection in all studies. The specific activity of ADI-PEG 20 used in these studies is 9 IU mg^−1 of protein. Thus, 1 IU of ADI-PEG 20 per 20 g mouse is equivalent to 160 IU m^−2.
# Efficacy of ADI-PEG 20 treatment in vivo was assessed by comparing means of control and treatment groups using unpaired two-tailed t-tests at the termination of control groups using GraphPad Prism (Version 5.0, GraphPad Software Inc., La Jolla, Calif., USA).
# [4] = tested on: ASS high osteosarcoma cell line MG63; assay: Sarcoma cell line panel treated with ADI-PEG 20; format: cell-based
# [5] = tested on: ASS-positive colon carcinoma cell line SW1222; assay: MTS proliferation assay, adherent cells; format: cell-based; conditions: 0 to 10 mIU ml^−1, 120 h
# Procedure: as §3
molecule,measurement,setting,value
B1,ADI-PEG 20 serum levels after end of dosing,[1]; administered only up to day 20,return to baseline levels by day 40
same,ADI-PEG 20 serum levels,"[1]; days 0, 12, 40, 1, 2, 5 IU",dose dependent
same,viability,ASS-negative AML lines,reduced the viability
same,viability (response to drug-induced arginine deprivation),[2],resistant
same,cell viability,SW1222; cells treated with ASS siRNA,reduced cell viability
same,cell viability,SW1222; control or scrambled siRNA-treated cells,no decrease in viability
same,half-life,[3],~170 h
same,tumor growth,"SK-LC-13 xenografts; 1, 2 and 5 IU, tumors 473.4±161.0 mm^3 at start",dose-dependent inhibition of tumor growth
same,tumor volume relative to control mice,"SK-LC-13 xenografts; 1 IU, continued treatment, day 32 (P=0.007)",significantly reduce the tumor volume
same,"tumor volume, continued relative to short-course treatment","SK-LC-13 xenografts; 1 IU, day 39",moderately significant (P=0.26) reduction in tumor volume
same,tumor size relative to control mice,"SK-LC-13 xenografts; 1 IU, short-course, day 32 (P=0.07)",did not result in a statistical significant reduction
same,tumor volume relative to untreated controls,"SK-LC-13 xenografts; 2 IU, continued (P=0.0007)",significant reduction of tumor volume
same,tumor volume relative to untreated controls,"SK-LC-13 xenografts; 2 IU, short (P=0.004)",significant reduction of tumor volume
same,"responses, continued dosing relative to short-course",SK-LC-13 xenografts; 2 and 5 IU,did not significantly improve responses
same,tumor volume relative to untreated controls,"SK-LC-13 xenografts; 5 IU, continued (P=0.0001)",significant reduction of tumor volume
same,tumor volume relative to untreated controls,"SK-LC-13 xenografts; 5 IU, short (P=0.0003)",significant reduction of tumor volume
same,cell division,[4],continued to divide
same,growth,[5],No effect
